Assay results published in patent US20240279310A1 (ALPINE IMMUNE SCIENCES, published 2024).
Positions count from the first letter of the chain named. Names may count otherwise. “And” between values parts separate entries of the source, which are not always exact repeats. Equal values may be shown once. Read-outs that look alike come from different tables or passages of the source. Values belong to the binder of their own block, whether it stands above or below them.

Assays:
Experiment in all cases: cell-based or functional assay
[1] = biological target: T1, recombinant human BAFF (BioLegend) (human, UniProt Q9Y275 134-285)
[2] = biological target: T2, recombinant human APRIL (Tonbo Biosciences) (human, UniProt O75888 105-250, limits assumed)
T2 sequence (looked up): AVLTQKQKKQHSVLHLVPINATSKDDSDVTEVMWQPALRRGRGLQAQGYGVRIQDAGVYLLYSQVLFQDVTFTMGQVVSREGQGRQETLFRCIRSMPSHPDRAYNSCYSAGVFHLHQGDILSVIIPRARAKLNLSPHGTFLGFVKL

[3] = biological target: T1, recombinant human BAFF (BioLegend); remark: listed apart in the source
[4] = biological target: T1, recombinant human BAFF (BioLegend); remark: listed apart in the source
[5] = biological target: BAFF 60-mer (an oligomer of twenty BAFF 3-mers)
[6] = biological target: T2, recombinant human APRIL (Tonbo …); remark: listed apart in the source
[7] = biological target: T1, recombinant human BAFF (BioLegend); remark: listed apart in the source
[8] = biological target: T2, recombinant human APRIL (Tonbo …); remark: listed apart in the source

B3: TACI WT 131 GS(G4S)2 (194) scFc_218 (SEQ ID NO: 205) (Fc fusion)
chain: SRVDQEERFPQGLWTGVAMRSCPEEQYWDPLLGTCMSCKTICNHQSQRTCAAFCRSLSCRKEQGKFYDHLLRDCISCASICGQHPKQCAYFCENKLRSPVNLPPELGSGGGGSGGGGSEPKSSDKTHTCPPCPAPEAEGAPSVFLFPPKPKDTLMISRTPEVTCVVVDVSHEDPEVKFNWYVDGVEVHNAKTKPREEQYNSTYRVVSVLTVLHQDWLNGKEYKCKVSNKALPAPIEKTISKAKGQPREPQVYTLPPSRDELTKNQVSLTCLVKGFYPSDIAVEWESNGQPENNYKTTPPVLDSDGSFFLYSKLTVDKSRWQQGNVFSCSVMHEALHNHYTQKSLSLSPGGGGGSGGGGSGGGGSGGGGSGGGGSGGGGSGGGGSGGGGSGGGGSGGGGSGGGGSGGGGSEPKSSDKTHTCPPCPAPEAEGAPSVFLFPPKPKDTLMISRTPEVTCVVVDVSHEDPEVKFNWYVDGVEVHNAKTKPREEQYNSTYRVVSVLTVLHQDWLNGKEYKCKVSNKALPAPIEKTISKAKGQPREPQVYTLPPSRDELTKNQVSLTCLVKGFYPSDIAVEWESNGQPENNYKTTPPVLDSDGSFFLYSKLTVDKSRWQQGNVFSCSVMHEALHNHYTQKSLSLSPG
BAFF IC50 (pM) [4]: 4580 pM
BAFF 60-mer IC50 (pM) [5]: 14300 pM

B4: TACI WT 13 GS(G4S)2 (194) sc_Fc 218 (SEQ ID NO: 196) (Fc fusion)
chain: SLSCRKEQGKFYDHLLRDCISCASICGQHPKQCAYFCENKLRSGSGGGGSGGGGSEPKSSDKTHTCPPCPAPEAEGAPSVFLFPPKPKDTLMISRTPEVTCVVVDVSHEDPEVKFNWYVDGVEVHNAKTKPREEQYNSTYRVVSVLTVLHQDWLNGKEYKCKVSNKALPAPIEKTISKAKGQPREPQVYTLPPSRDELTKNQVSLTCLVKGFYPSDIAVEWESNGQPENNYKTTPPVLDSDGSFFLYSKLTVDKSRWQQGNVFSCSVMHEALHNHYTQKSLSLSPGGGGGSGGGGSGGGGSGGGGSGGGGSGGGGSGGGGSGGGGSGGGGSGGGGSGGGGSGGGGSEPKSSDKTHTCPPCPAPEAEGAPSVFLFPPKPKDTLMISRTPEVTCVVVDVSHEDPEVKFNWYVDGVEVHNAKTKPREEQYNSTYRVVSVLTVLHQDWLNGKEYKCKVSNKALPAPIEKTISKAKGQPREPQVYTLPPSRDELTKNQVSLTCLVKGFYPSDIAVEWESNGQPENNYKTTPPVLDSDGSFFLYSKLTVDKSRWQQGNVFSCSVMHEALHNHYTQKSLSLSPG
BAFF IC50 (pM) [4]: 5700 pM
BAFF 60-mer IC50 (pM) [5]: 24100 pM

B5: TACI 26 GS(G4S)2 (194) scFc_218 (SEQ ID NO: 199) (Fc fusion)
chain: B4 chain with K10E, F11Y, Y35D
BAFF IC50 (pM) [4]: 8240 pM
BAFF 60-mer IC50 (pM) [5]: 106000 pM

B6: TACI WT 13 GSG4S (74) Fc 73(G4S)4 (84) (TACI WT 13 (SEQ ID NO: 202) (Fc fusion)
chain: SLSCRKEQGKFYDHLLRDCISCASICGQHPKQCAYFCENKLRSGSGGGGSEPKSSDKTHTCPPCPAPEAEGAPSVFLFPPKPKDTLMISRTPEVTCVVVDVSHEDPEVKFNWYVDGVEVHNAKTKPREEQYNSTYRVVSVLTVLHQDWLNGKEYKCKVSNKALPAPIEKTISKAKGQPREPQVYTLPPSRDELTKNQVSLTCLVKGFYPSDIAVEWESNGQPENNYKTTPPVLDSDGSFFLYSKLTVDKSRWQQGNVFSCSVMHEALHNHYTQKSLSLSPGGGGGSGGGGSGGGGSGGGGSSLSCRKEQGKFYDHLLRDCISCASICGQHPKQCAYFCENKLRS
BAFF IC50 (pM) [4]: 1040 pM
APRIL IC50 (pM) [6]: 11900 pM
BAFF 60-mer IC50 (pM) [5]: 2580 pM

B7: TACI 26 GSG4S (74) Fc 73 (G4S)4 (84) TACI 26 (SEQ ID NO: 201) (Fc fusion)
chain: B6 chain with K10E, F11Y, Y35D, K311E, F312Y, Y336D
BAFF IC50 (pM) [4]: 779 pM
APRIL IC50 (pM) [6]: 3760 pM
BAFF 60-mer IC50 (pM) [5]: 778 pM

B8: TACI WT 13 (G4S)4 (84) (TACI WT 13 GSG4S (74) Fc 73 (SEQ ID NO: 198) (Fc fusion)
chain: SLSCRKEQGKFYDHLLRDCISCASICGQHPKQCAYFCENKLRSGGGGSGGGGSGGGGSGGGGSSLSCRKEQGKFYDHLLRDCISCASICGQHPKQCAYFCENKLRSGSGGGGSEPKSSDKTHTCPPCPAPEAEGAPSVFLFPPKPKDTLMISRTPEVTCVVVDVSHEDPEVKFNWYVDGVEVHNAKTKPREEQYNSTYRVVSVLTVLHQDWLNGKEYKCKVSNKALPAPIEKTISKAKGQPREPQVYTLPPSRDELTKNQVSLTCLVKGFYPSDIAVEWESNGQPENNYKTTPPVLDSDGSFFLYSKLTVDKSRWQQGNVFSCSVMHEALHNHYTQKSLSLSPG
BAFF IC50 (pM) [4]: 3290 pM
APRIL IC50 (pM) [6]: 34600 pM
BAFF 60-mer IC50 (pM) [5]: 4330 pM

B9: TACI WT 1 GS(G4S)2 (194) scFc_218 (SEQ ID NO: 203) (Fc fusion)
chain: VAMRSCPEEQYWDPLLGTCMSCKTICNHQSQRTCAAFCRSLSCRKEQGKFYDHLLRDCISCASICGQHPKQCAYFCENKLRSGSGGGGSGGGGSEPKSSDKTHTCPPCPAPEAEGAPSVFLFPPKPKDTLMISRTPEVTCVVVDVSHEDPEVKFNWYVDGVEVHNAKTKPREEQYNSTYRVVSVLTVLHQDWLNGKEYKCKVSNKALPAPIEKTISKAKGQPREPQVYTLPPSRDELTKNQVSLTCLVKGFYPSDIAVEWESNGQPENNYKTTPPVLDSDGSFFLYSKLTVDKSRWQQGNVFSCSVMHEALHNHYTQKSLSLSPGGGGGSGGGGSGGGGSGGGGSGGGGSGGGGSGGGGSGGGGSGGGGSGGGGSGGGGSGGGGSEPKSSDKTHTCPPCPAPEAEGAPSVFLFPPKPKDTLMISRTPEVTCVVVDVSHEDPEVKFNWYVDGVEVHNAKTKPREEQYNSTYRVVSVLTVLHQDWLNGKEYKCKVSNKALPAPIEKTISKAKGQPREPQVYTLPPSRDELTKNQVSLTCLVKGFYPSDIAVEWESNGQPENNYKTTPPVLDSDGSFFLYSKLTVDKSRWQQGNVFSCSVMHEALHNHYTQKSLSLSPG
BAFF IC50 (pM) [4]: 4420 pM
BAFF 60-mer IC50 (pM) [5]: 15800 pM

Second part, the binder after the results:

IC50 (pM) BAFF [1]: 6850 pM
IC50 (pM) APRIL [2]: 17200 pM
BAFF IC50 (pM) [3]: 9170 pM and 7300 pM
B1: Telitacicept/Tai'ai (RemeGen) (Fc fusion)
chain: SRVDQEERFPQGLWTGVAMRSCPEEQYWDPLLGTCMSCKTICNHQSQRTCAAFCRSLSCRKEQGKFYDHLLRDCISCASICGQHPKQCAYFCENKLRSPVNLPPEL

IC50 (pM) BAFF [1]: 8280 pM
IC50 (pM) APRIL [2]: 9260 pM
BAFF IC50 (pM) [3]: 7740 pM
BAFF IC50 (Δ WT) [3]: 4.17 ratio
B2: atacicept (WT TACI-Fc sequences corresponding to atacicept, containing WT TACI 30-110; SEQ ID NO:132) (Fc fusion)
chain: AMRSCPEEQYWDPLLGTCMSCKTICNHQSQRTCAAFCRSLSCRKEQGKFYDHLLRDCISCASICGQHPKQCAYFCENKLRSEPKSSDKTHTCPPCPAPEAEGAPSVFLFPPKPKDTLMISRTPEVTCVVVDVSHEDPEVKFNWYVDGVEVHNAKTKPREEQYNSTYRVVSVLTVLHQDWLNGKEYKCKVSNKALPSSIEKTISKAKGQPREPQVYTLPPSRDELTKNQVSLTCLVKGFYPSDIAVEWESNGQPENNYKTTPPVLDSDGSFFLYSKLTVDKSRWQQGNVFSCSVMHEALHNHYTQKSLSLSPGK

IC50 (pM) BAFF [1]: 2260 pM
BAFF IC50 (pM) [3]: 2200 pM
BAFF IC50 (Δ WT) [3]: 1.18 ratio
IC50 (nM) BAFF [7]: 2500 nM
IC50 BAFF (Δ TACI 30-110-Fc) [7]: 0.43 ratio
IC50 (nM) APRIL [8]: 215000 nM
IC50 APRIL (Δ TACI 30-110-Fc) [8]: 55.8 ratio
B10: belimumab, anti-BAFF monoclonal antibody (antibody, V domains shown)
VH: QVQLQQSGAEVKKPGSSVRVSCKASGGTFNNNAINWVRQAPGQGLEWMGGIIPMFGTAKYSQNFQGRVAITADESTGTASMELSSLRSEDTAVYYCARSRDLLLFPHHALSPWGRGTMVTVSS
VL: SSELTQDPAVSVALGQTVRVTCQGDSLRSYYASWYQQKPGQAPVLVIYGKNNRPSGIPDRFSGSSSGNTASLTITGAQAEDEADYYCSSRDSSGNHWVFGGGTELTVLG
